What was measured:
[1] = biological target: T1 with SpyCatcher, flanked by six residue glycine-serine linkers, inserted on the lumenal side (Haliangium ochraceum | not stated); experiment: fluorescence intensity of purified shells; number of cfp cargo proteins per shell calculated from fluorescence intensity values of shells loaded in vivo and purified by CAP and anion exchange
[2] = biological target: T1 with SpyTag, flanked by six residue glycine-serine linkers, inserted on the lumenal side (Haliangium ochraceum | not stated); experiment: as above

| Substance | cfp cargo copies per shell (copies per shell) [1] | cfp cargo copies per shell (copies per shell) [2] |
| --- | --- | --- |
| SpyTag-mTurquoise2-6xHis (SpyTagged cyan fluorescent protein cargo) | 73 |  |
| SpyCatcher-mTurquoise2-6xHis (SpyCatcher-fused cyan fluorescent protein cargo) |  | 58 |

— paper PMC6056538
